According to patent US20220251204A1 (AstraZeneca / MedImmune, published 2022):

Assays:
[1] = molecular target: T1, human PD-1 antigen (soluble) (human, UniProt Q15116 25-170); assay: SPR, BIAcore T200; antibody captured on mouse anti-huIgG-Fab, antigen injected
T1 construct: also called hu PD1; Biotinylated human PD-1

cynomolgus PD-1 = molecular target: T2, cynomolgus PD-1 (cynomolgus, UniProt B0LAJ3 25-170); assay: as above
T2 construct: also called cyno PD1

[2] = molecular target: T3, human CTLA-4 expressed on cells (human, UniProt P16410 36-223); assay: cell-based or functional assay
T3 sequence: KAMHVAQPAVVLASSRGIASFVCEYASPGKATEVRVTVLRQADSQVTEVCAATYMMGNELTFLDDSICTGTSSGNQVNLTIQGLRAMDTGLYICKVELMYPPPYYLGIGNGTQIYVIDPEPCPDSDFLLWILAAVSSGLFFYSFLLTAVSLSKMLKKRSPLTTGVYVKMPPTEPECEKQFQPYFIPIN

[3] = molecular target: T4, human PD-1 expressed on cells (human, UniProt Q15116 25-288); assay: flow cytometry, HumanPD1 CHO cells, x axis hIgG1TM mAb (nM)
T4 construct: also called CHO cells overexpressing human PD1
T4 sequence (Q15116 25-288 limits assumed): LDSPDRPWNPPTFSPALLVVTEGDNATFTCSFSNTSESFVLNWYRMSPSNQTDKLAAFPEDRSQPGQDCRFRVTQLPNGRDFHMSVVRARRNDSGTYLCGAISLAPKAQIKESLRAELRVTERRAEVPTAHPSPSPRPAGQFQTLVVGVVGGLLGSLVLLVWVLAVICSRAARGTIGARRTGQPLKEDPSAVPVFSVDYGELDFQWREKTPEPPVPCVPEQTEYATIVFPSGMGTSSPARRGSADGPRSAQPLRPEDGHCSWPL

human TIM3 (soluble) = molecular target: T5, human TIM3 (soluble) (human, UniProt Q8TDQ0 22-202); assay: SPR, BIAcore T200; antibody captured on mouse anti-huIgG-Fab, antigen injected
T5 construct: also called Biotinylated human TIM3
T5 sequence: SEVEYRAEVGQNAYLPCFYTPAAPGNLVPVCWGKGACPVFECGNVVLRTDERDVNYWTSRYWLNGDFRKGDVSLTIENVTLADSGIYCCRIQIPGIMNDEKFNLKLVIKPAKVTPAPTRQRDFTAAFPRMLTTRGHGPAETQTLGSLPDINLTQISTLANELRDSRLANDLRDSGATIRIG

cynomolgus TIM3 = molecular target: T6, cynomolgus TIM3 (cynomolgus, UniProt A0A2K5U3G7 22-195); assay: as above
T6 construct: also called Cyno TIM3
T6 sequence: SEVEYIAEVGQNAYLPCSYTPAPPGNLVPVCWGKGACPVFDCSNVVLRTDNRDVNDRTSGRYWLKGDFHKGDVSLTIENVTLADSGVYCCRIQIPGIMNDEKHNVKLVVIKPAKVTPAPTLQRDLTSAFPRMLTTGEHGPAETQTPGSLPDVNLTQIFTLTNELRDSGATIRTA

[4] = molecular target: T7, CTLA-4-Fc (human recombinant protein, R&D Systems) (human, UniProt P16410 37-162); assay: Octet, same tip after PDL1-His and bispecific, then CTLA-4-Fc (100 nM per paragraph 296): concurrent binding
T7 construct: also called CTLA-4-Fc antigen; not shown: Fc part of the bought fusion
T7 sequence: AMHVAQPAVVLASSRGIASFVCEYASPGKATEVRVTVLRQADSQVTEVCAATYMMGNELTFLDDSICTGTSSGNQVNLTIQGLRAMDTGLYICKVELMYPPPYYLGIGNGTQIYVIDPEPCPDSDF

T1 sequence (Q15116 25-170 limits assumed): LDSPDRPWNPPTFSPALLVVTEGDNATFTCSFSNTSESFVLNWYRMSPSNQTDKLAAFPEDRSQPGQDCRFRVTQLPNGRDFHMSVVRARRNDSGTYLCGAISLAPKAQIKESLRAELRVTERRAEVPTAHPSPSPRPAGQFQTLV
T2 sequence (B0LAJ3 entry or part of it limits assumed): as the sequence (Q15116 25-170 limits assumed) above, with D2E, P10A, V19L, T35A, Q75R, T144A counted along it

B1: LO115 IgG1-TM (antibody, V domains shown)
VH: EVQLVESGGGLVQPGGSLRLSCAASGFTFSDYGMHWVRQAPGKGLEWVAYISSGSYTIYSADSVKGRFTISRDNAKNSLYLQMNSLRAEDTAVYYCARRAPNSFYEYYFDYWGQGTTVTVSS
VL: QIVLTQSPATLSLSPGERATLSCSASSKHTNLYWSRHMYWYQQKPGQAPRLLIYLTSNRATGIPARFSGSGSGTDFTLTISSLEPEDFAVYYCQQWSSNPFTFGQGTKLEIK
notes: also called parental LO115 IgG1
B1 showed a Kd [1] of 0.79 nM, a koff [1] of 0.000237 s⁻¹ and a kon [1] of 302000 M⁻¹ s⁻¹. It also gave a Kd (cynomolgus PD-1) of 0.81 nM, a koff (cynomolgus PD-1) of 0.000238 s⁻¹ and a kon (cynomolgus PD-1) of 346000 M⁻¹ s⁻¹.

B2: Bis5 PD-1/CTLA-4 (bispecific antibody, human IgG4 S228P, kappa)
heavy: EVQLVESGGGLVQPGGSLRLSCAASGFTFSDYGMHWVRQAPGKGLEWVAYISSGSYTIYSADSVKGRFTISRDNAKNSLYLQMNSLRAEDTAVYYCARRAPNSFYEYYFDYWGQGTTVTVSSASTKGPSVFPLAPCSRSTSESTAALGCLVKDYFPEPVTVSWNSGALTSGVHTFPAVLQSSGLYSLSSVVTVPSSSLGTKTYTCNVDHKPSNTKVDKRVESKYGPPCPPCPAPEFLGGPSVFLFPPKPKDTLMISRTPEVTCVVVDVSQEDPEVQFNWYVDGVEVHNAKTKPREEQFNSTYRVVSVLTVLHQDWLNGKEYKCKVSNKGLPSSIEKTISKAKGQPREPQVYTLPPSQEEMTKNQVSLTCLVKGFYPSDIAVEWESNGGGGSGGGGSDIQMTQSPSSLSASVGDRVTITCRASQSINSYLDWYQQKPGKAPKLLIYAASSLQSGVPSRFSGSGSGTDFTLTISSLQPEDFATYYCQQYYSTPFTFGCGTKVEIKGGGGSGGGGSGGGGSGGGGSQVQLVESGGGVVQPGRSLRLSCAASGFTFSSYGMHWVRQAPGKCLEWVAVIWYDGSNKYYADSVKGRFTISRDNSKNTLYLQMNSLRAEDTAVYYCARDPRGATLYYYYYGMDVWGQGTTVTVSSGGGGSGGGGSGQPENNYKTTPPVLDSDGSFFLYSRLTVDKSRWQEGNVFSCSVMHEALHNHYTQKSLSLSLGK
light: QIVLTQSPATLSLSPGERATLSCSASSKHTNLYWSRHMYWYQQKPGQAPRLLIYLTSNRATGIPARFSGSGSGTDFTLTISSLEPEDFAVYYCQQWSSNPFTFGQGTKLEIKRTVAAPSVFIFPPSDEQLKSGTASVVCLLNNFYPREAKVQWKVDNALQSGNSQESVTEQDSKDSTYSLSSTLTLSKADYEKHKVYACEVTHQGLSSPVTKSFNRGEC
For B2, the “fold decrease in CTLA-4 reporter gene assay, potency” value [2] was about 3 fold.

B3: BiS3 PD-1(LO115)/TIM3(O13-1) (bispecific antibody, human IgG1, kappa)
heavy: EVQLVESGGGLVQPGGSLRLSCAASGFTFSDYGMHWVRQAPGKGLEWVAYISSGSYTIYSADSVKGRFTISRDNAKNSLYLQMNSLRAEDTAVYYCARRAPNSFYEYYFDYWGQGTTVTVSSASTKGPSVFPLAPSSKSTSGGTAALGCLVKDYFPEPVTVSWNSGALTSGVHTFPAVLQSSGLYSLSSVVTVPSSSLGTQTYICNVNHKPSNTKVDKRVEPKSCDKTHTCPPCPAPEFEGGPSVFLFPPKPKDTLMISRTPEVTCVVVDVSHEDPEVKFNWYVDGVEVHNAKTKPREEQYNSTYRVVSVLTVLHQDWLNGKEYKCKVSNKALPASIEKTISKAKGQPREPQVYTLPPSREEMTKNQVSLTCLVKGFYPSDIAVEWESNGQPENNYKTTPPVLDSDGSFFLYSKLTVDKSRWQQGNVFSCSVMHEALHNHYTQKSLSLSPGKGGGGSGGGGSEVQLLESGGGLVQPGGSLRLSCAASGFTFSSYAMSWVRQAPGKCLEWVSAISGSGGSTYYADSVKGRFTISRDNSKNTLYLQMNSLRAEDTAVYYCARGSYGTYYGNYFEYWGQGTLVTVSSGGGGSGGGGSGGGGSGGGGSSYVLTQPPSVSVAPGKTARITCGGDNIGGKSVHWYQQKPGQAPVLVIYYDSDRPSGIPERFSGSNSGNTATLTISRVEAGDEADYYCQVLDRRSDHFLFGCGTKLTVL
light: QIVLTQSPATLSLSPGERATLSCSASSKHTNLYWSRHMYWYQQKPGQAPRLLIYLTSNRATGIPARFSGSGSGTDFTLTISSLEPEDFAVYYCQQWSSNPFTFGQGTKLEIKRTVAAPSVFIFPPSDEQLKSGTASVVCLLNNFYPREAKVQWKVDNALQSGNSQESVTEQDSKDSTYSLSSTLTLSKADYEKHKVYACEVTHQGLSSPVTKSFNRGEC
notes: also called PD-1/TIM3 BiS3
For B3, the “EC50 (read off the curve)” value [3] was about 4 nM.

B4: PD-1(LO115)/TIM3(O13-1) DuetMab (bispecific antibody, human IgG1, kappa, lambda)
heavy 1: EVQLVESGGGLVQPGGSLRLSCAASGFTFSDYGMHWVRQAPGKGLEWVAYISSGSYTIYSADSVKGRFTISRDNAKNSLYLQMNSLRAEDTAVYYCARRAPNSFYEYYFDYWGQGTTVTVSSASTKGPSVFPLAPSSKSTSGGTAALGCLVKDYFPEPVTVSWNSGALTSGVHTFPAVLQSSGLYSLSSVVTVPSSSLGTQTYICNVNHKPSNTKVDKRVEPKSCDKTHTCPPCPAPEFEGGPSVFLFPPKPKDTLMISRTPEVTCVVVDVSHEDPEVKFNWYVDGVEVHNAKTKPREEQYNSTYRVVSVLTVLHQDWLNGKEYKCKVSNKALPASIEKTISKAKGQPREPQVCTLPPSREEMTKNQVSLSCAVKGFYPSDIAVEWESNGQPENNYKTTPPVLDSDGSFFLVSKLTVDKSRWQQGNVFSCSVMHEALHNHYTQKSLSLSPGK
light 1: QIVLTQSPATLSLSPGERATLSCSASSKHTNLYWSRHMYWYQQKPGQAPRLLIYLTSNRATGIPARFSGSGSGTDFTLTISSLEPEDFAVYYCQQWSSNPFTFGQGTKLEIKRTVAAPSVFIFPPSDEQLKSGTASVVCLLNNFYPREAKVQWKVDNALQSGNSQESVTEQDSKDSTYSLSSTLTLSKADYEKHKVYACEVTHQGLSSPVTKSFNRGEC
heavy 2: not shown
light 2: SYVLTQPPSVSVAPGKTARITCGGDNIGGKSVHWYQQKPGQAPVLVIYYDSDRPSGIPERFSGSNSGNTATLTISRVEAGDEADYYCQVLDRRSDHFLFGGGTKLTVLGQPKAAPSVTLFPPCSEELQANKATLVCLISDFYPGAVTVAWKADSSPVKAGVETTTPSKQSNNKYAASSYLSLTPEQWKSHRSYSCQVTHEGSTVEKTVAPTEVS
notes: also called PD-1/TIM3 DuetMab
Work on B4 yielded a Kd [1] of 0.81 nM, a koff [1] of 0.000236 s⁻¹ and a kon [1] of 295000 M⁻¹ s⁻¹. For the same binder, the Kd (cynomolgus PD-1) was 0.44 nM, the koff (cynomolgus PD-1) was 0.000215 s⁻¹ and the kon (cynomolgus PD-1) was 490000 M⁻¹ s⁻¹. It also gave a Kd (human TIM3 (soluble)) of 4.15 nM, a koff (human TIM3 (soluble)) of 0.00813 s⁻¹ and a kon (human TIM3 (soluble)) of 1.96e+06 M⁻¹ s⁻¹. For the same binder, the Kd (cynomolgus TIM3) was 25.6 nM, the koff (cynomolgus TIM3) was 0.0761 s⁻¹ and the kon (cynomolgus TIM3) was 2.98e+06 M⁻¹ s⁻¹.

B5: Bis2 PD-L1/CTLA-4 (bispecific antibody, human IgG4 S228P, kappa)
heavy: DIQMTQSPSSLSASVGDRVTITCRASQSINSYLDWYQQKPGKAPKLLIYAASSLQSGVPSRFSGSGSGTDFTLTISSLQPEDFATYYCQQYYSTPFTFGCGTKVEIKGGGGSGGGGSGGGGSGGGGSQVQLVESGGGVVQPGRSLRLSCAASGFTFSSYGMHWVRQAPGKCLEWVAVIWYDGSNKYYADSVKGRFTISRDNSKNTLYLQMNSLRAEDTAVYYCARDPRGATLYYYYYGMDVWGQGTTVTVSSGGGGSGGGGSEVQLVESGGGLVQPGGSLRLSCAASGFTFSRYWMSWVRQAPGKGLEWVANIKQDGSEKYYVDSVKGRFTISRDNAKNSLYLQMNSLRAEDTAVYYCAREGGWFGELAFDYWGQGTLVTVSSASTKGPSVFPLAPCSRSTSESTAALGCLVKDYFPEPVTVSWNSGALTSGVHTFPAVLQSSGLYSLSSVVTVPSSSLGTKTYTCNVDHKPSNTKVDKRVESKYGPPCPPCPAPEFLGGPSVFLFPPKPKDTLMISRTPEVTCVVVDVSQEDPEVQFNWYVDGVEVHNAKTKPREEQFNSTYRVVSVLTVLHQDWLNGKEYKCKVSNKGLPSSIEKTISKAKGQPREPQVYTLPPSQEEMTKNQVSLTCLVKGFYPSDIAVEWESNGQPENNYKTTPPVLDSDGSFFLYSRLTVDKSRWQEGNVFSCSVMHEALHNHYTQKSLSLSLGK
light: EIVLTQSPGTLSLSPGERATLSCRASQRVSSSYLAWYQQKPGQAPRLLIYDASSRATGIPDRFSGSGSGTDFTLTISRLEPEDFAVYYCQQYGSLPWTFGQGTKVEIKRTVAAPSVFIFPPSDEQLKSGTASVVCLLNNFYPREAKVQWKVDNALQSGNSQESVTEQDSKDSTYSLSSTLTLSKADYEKHKVYACEVTHQGLSSPVTKSFNRGEC
B5: binds [4].

B6: Bis5 PD-L1/CTLA-4 (bispecific antibody, human IgG4 S228P, kappa)
heavy: EVQLVESGGGLVQPGGSLRLSCAASGFTFSRYWMSWVRQAPGKGLEWVANIKQDGSEKYYVDSVKGRFTISRDNAKNSLYLQMNSLRAEDTAVYYCAREGGWFGELAFDYWGQGTLVTVSSASTKGPSVFPLAPCSRSTSESTAALGCLVKDYFPEPVTVSWNSGALTSGVHTFPAVLQSSGLYSLSSVVTVPSSSLGTKTYTCNVDHKPSNTKVDKRVESKYGPPCPPCPAPEFLGGPSVFLFPPKPKDTLMISRTPEVTCVVVDVSQEDPEVQFNWYVDGVEVHNAKTKPREEQFNSTYRVVSVLTVLHQDWLNGKEYKCKVSNKGLPSSIEKTISKAKGQPREPQVYTLPPSQEEMTKNQVSLTCLVKGFYPSDIAVEWESNGGGGSGGGGSDIQMTQSPSSLSASVGDRVTITCRASQSINSYLDWYQQKPGKAPKLLIYAASSLQSGVPSRFSGSGSGTDFTLTISSLQPEDFATYYCQQYYSTPFTFGCGTKVEIKGGGGSGGGGSGGGGSGGGGSQVQLVESGGGVVQPGRSLRLSCAASGFTFSSYGMHWVRQAPGKCLEWVAVIWYDGSNKYYADSVKGRFTISRDNSKNTLYLQMNSLRAEDTAVYYCARDPRGATLYYYYYGMDVWGQGTTVTVSSGGGGSGGGGSGQPENNYKTTPPVLDSDGSFFLYSRLTVDKSRWQEGNVFSCSVMHEALHNHYTQKSLSLSLGK
light: EIVLTQSPGTLSLSPGERATLSCRASQRVSSSYLAWYQQKPGQAPRLLIYDASSRATGIPDRFSGSGSGTDFTLTISRLEPEDFAVYYCQQYGSLPWTFGQGTKVEIKRTVAAPSVFIFPPSDEQLKSGTASVVCLLNNFYPREAKVQWKVDNALQSGNSQESVTEQDSKDSTYSLSSTLTLSKADYEKHKVYACEVTHQGLSSPVTKSFNRGEC
B6: binds [4].

B7: Bis3 PD-L1/CTLA-4 (bispecific antibody, human IgG4 S228P, kappa)
heavy: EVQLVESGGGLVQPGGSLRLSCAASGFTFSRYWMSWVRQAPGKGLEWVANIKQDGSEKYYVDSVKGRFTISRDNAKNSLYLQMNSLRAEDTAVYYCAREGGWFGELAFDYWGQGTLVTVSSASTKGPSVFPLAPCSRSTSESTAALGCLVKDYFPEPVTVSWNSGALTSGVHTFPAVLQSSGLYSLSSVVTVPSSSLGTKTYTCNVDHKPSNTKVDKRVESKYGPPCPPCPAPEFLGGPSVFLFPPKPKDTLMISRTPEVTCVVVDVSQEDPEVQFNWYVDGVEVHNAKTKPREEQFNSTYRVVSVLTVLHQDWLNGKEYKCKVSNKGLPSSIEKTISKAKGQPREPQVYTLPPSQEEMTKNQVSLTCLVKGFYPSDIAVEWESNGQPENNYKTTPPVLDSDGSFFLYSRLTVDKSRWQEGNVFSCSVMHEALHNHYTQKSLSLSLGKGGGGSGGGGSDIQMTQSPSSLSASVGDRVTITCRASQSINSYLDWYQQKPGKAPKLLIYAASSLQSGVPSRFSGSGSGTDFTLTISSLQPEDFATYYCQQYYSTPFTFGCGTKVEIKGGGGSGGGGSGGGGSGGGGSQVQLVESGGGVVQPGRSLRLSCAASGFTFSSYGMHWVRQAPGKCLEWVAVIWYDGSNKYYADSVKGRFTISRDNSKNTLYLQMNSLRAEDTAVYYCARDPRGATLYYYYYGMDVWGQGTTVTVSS
light: EIVLTQSPGTLSLSPGERATLSCRASQRVSSSYLAWYQQKPGQAPRLLIYDASSRATGIPDRFSGSGSGTDFTLTISRLEPEDFAVYYCQQYGSLPWTFGQGTKVEIKRTVAAPSVFIFPPSDEQLKSGTASVVCLLNNFYPREAKVQWKVDNALQSGNSQESVTEQDSKDSTYSLSSTLTLSKADYEKHKVYACEVTHQGLSSPVTKSFNRGEC
B7: binds [4].
